# In patent US20190256597:
# System: T1, cleavable peptide CP(AQ), Lys(AQ)SerGlyProLeuGlyValArgGlySerSerCys
# T1 sequence: KSGPLGVRGSSC
substance,measurement,value
"purified, recombinant MMP2 (BioLegend, #554304)",proteolytic cleavage followed by thin layer chromatography,"after the incubation of CP(AQ) with MMP2, the compound was able to shift organic solution, with a transformed behavior from hydrophilic to hydrophobic"
